Non-standard residues stand in square brackets, D forms with d. Primed or numbered codes have the meaning given here. No end group written: not given here. *: point of attachment. FITC′ = fluorescein isothiocyanate (fluorescein label attached to the Lys side chain); FITC″ = fluorescein isothiocyanate, fluorescein thiocarbamoyl on Lys NZ; FITC = O=C1OC2(c3ccc(O)cc3Oc3cc(O)ccc32)c2ccc(NC(=S)*)cc21; Benzoyl(2,3-Cl2) = O=C(c1cccc(Cl)c1Cl)*; Phe(4-F) = N[C@@H](Cc1ccc(F)cc1)C(=O)O; Tle = CC(C)(C)[C@H](N)C(=O)O; acyl = not defined here; Bz = O=C(c1ccccc1)*; βAla = NCCC(=O)O
Assays:
[1] = molecular target: T1, calcineurin expressed as the glutathione S-transferase fusion protein (GST-CN) (UniProt Q08209 2-347); assay: fluorescence anisotropy (FA), direct binding of FITC-labeled peptide to GST-CN
T1 construct: also called CN-GST; recombinant GST-CN; not shown: glutathione S-transferase (GST) fusion partner
T1 sequence (Q08209 2-347): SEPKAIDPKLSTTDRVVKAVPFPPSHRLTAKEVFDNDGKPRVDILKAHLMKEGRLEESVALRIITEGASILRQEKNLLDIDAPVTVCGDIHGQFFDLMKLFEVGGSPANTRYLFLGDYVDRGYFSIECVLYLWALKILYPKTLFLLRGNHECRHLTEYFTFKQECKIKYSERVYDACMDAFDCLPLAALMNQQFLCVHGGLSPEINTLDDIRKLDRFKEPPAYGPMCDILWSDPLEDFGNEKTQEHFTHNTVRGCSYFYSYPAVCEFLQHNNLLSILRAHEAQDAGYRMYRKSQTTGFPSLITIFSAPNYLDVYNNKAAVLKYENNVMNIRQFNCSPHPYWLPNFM
Method: (§1) Fluorescence Polarization. Fluorescence polarization (FP) experiments were carried out to measure binding affinity in both direct and competitive binding experiments using GST-CN and peptides prepared as mentioned previously. […] Solutions were incubated for 1 h at RT with gentle mixing and then pipetted into black 384-well microplates. Fluorescence polarization was measured on a TECAN Infinite M1000 plate reader and titration curves were fitted using both KaelidaGraph v 3.6 and GraphPad PRISM to the equation: […]

[2] = molecular target: mouse plasma proteins; assay: rapid equilibrium dialysis (RED) of CNI103 in mouse plasma, 37° C., 5 hours, LC/MS/MS
[3] = molecular target: T1, calcineurin expressed as the …; assay: FP competition: 15 nM FITC-labeled compound 35 as probe, 15 nM GST-CN, unlabeled inhibitor titrated
Method: (§2) Serial dilutions of unlabeled inhibitor were prepared in pH 7.4 PBS containing 0.01% Triton-X100, to which was added the incubation solution and mixed for 1 h at RT. 20 μL aliquots from each concentration were added into 384-well black-on-black microplates and fluorescence polarization was measured using a TECAN Infinite M1000 plate reader. IC50 values were calculated using GraphPad PRISM v. 7.

[4] = molecular target: T1, calcineurin expressed as the …; assay: FP competition (Condition E): 50 nM probe, 50 nM CN-GST, unlabeled compound titrated
Method: Binding Affinity. […] Serial dilutions of each unlabeled compound were prepared in pH 7.4 PBS containing 0.01% Triton-X100, to which was added the incubation solution and mixed for 1 hr at RT after which 20 μL sample was pipetted into 384-well black-on-black microplates and fluorescence polarization was measured using a TECAN Infinite M1000 plate reader. IC₅₀ values were calculated using GraphPad PRISM v.

[5] = molecular target: T1, calcineurin expressed as the …; assay: FA-based competition (FP): 50 nM FITC-labeled peptide 14 as probe, 100 nM GST-CN, competitor titrated
Method: (§3) Serial dilutions of competitor peptides were prepared in PBS with 0.01% Trition-X100 and then added to the incubation solution and equilibrated at RT with gentle mixing for 1 h. Samples were pipetted into 384-well black microplates and FP signal was measured using a TECAN Infinite M1000 plate reader and analyzed using GraphPad PRISM v.6.

[6] = molecular target: T1, calcineurin expressed as the …; assay: direct binding by FA
Method: as §1

[7] = molecular target: T1, calcineurin expressed as the …; assay: fluorescence anisotropy (FA), direct binding of FITC-labeled peptide
Method: as §1
(§4) Additional characterization of CNI95 (including in vivo evaluation) is currently ongoing.

[8] = molecular target: T1, calcineurin expressed as the …; assay: FA-based competition assay, inhibition of the binding of peptide 14 to CN
Method: as §3, §4

[9] = molecular target: T1, calcineurin expressed as the …; assay: fluorescence anisotropy (FA), direct binding
[10] = molecular target: T1, calcineurin expressed as the …; assay: FP competition with FITC-labeled compound 35 for GST-CN
Method: as §2

Binder: {Benzoyl(2,3-Cl2)}-[Tle]I[Tle]ITQH[dL]S[βAla]K(FITC″) (also called FITC-labeled peptide 14) [peptide 14: Dcb-ZIZIT-Gln-His-leu-Ser-βAla-Lys (FITC)]
- Kd [1]: 9.1 nM

Binder: {Benzoyl(2,3-Cl2)}-[Tle]I[Tle]ITQH[dL]H[βAla]K(FITC″) [peptide 15: Dcb-ZIZIT-Gln-His-leu-His-βAla-Lys (FITC)]
- Kd [1]: 4.7 nM

B1: CNI103: (DCNA)-Tle-Ile-Bhv-Ile-Thr-Gln-His-(D-Leu)-Ser-miniPEG-Lys{[cyclo-(Gln-(D-Arg)-Arg-(D-Arg)-Arg-(2-Nal)-(D-Phe)]}-NH2 (peptide)
peptide: XIXITQHLSKQRRRRXF
modifications: not fully specified; N-terminal DCNA (2,3-dichlorisonicotinamide; Table 8 prints DCN); Tle at 1; Bhv = L-β-hydroxyvaline at 3 (Table 8 prints Hva); D-Leu; miniPEG; Lys side chain carrying cyclo-(Gln-(D-Arg)-Arg-(D-Arg)-Arg-(2-Nal)-(D-Phe)); C-terminal amide
notes: also called CN103; compound 43
- % Binding [2]: 97.6%
- IC50 [3]: 223 nM
- IC50 [4]: 223 nM

B2: CNI88 (peptide)
peptide: XIXITYEXGAKFXRRRRQ
modifications: not fully specified; sequence of peptide 13 (Dcb-ZIZIT-Tyr-glu-Fpa-Gly) with cyclic CPP9, cyclo(fΦRrRrQ), attached to the C-terminus through an amide bond and a βAla-Lys linker; Z = Tle; D-Glu; Fpa = …
- IC50 [5]: 426 nM

Binder: Ac-GPHP[Tle]I[Tle]ITGPHEEYK(FITC″)-NH2 [peptide 1: Ac-GPHPZIZITGPHEEYK(FITC)-NH2]
- Kd [1]: 92 nM

B3: CNI101: (DCNA)-Tle-Ile-Tle-Ile-Thr-Gln-His-(D-Leu)-Ser-miniPEG-Lys{[cyclo-(Gln-(D-Arg)-Arg-(D-Arg)-Arg-(2-Nal)-(D-Phe)]}-NH2 (peptide)
peptide: XIXITQHLSKQRRRRXF
modifications: not fully specified; N-terminal DCNA (2,3-dichlorisonicotinamide; Table 8 prints DCN, 2,3-dichloro-4-pyridinyl); Tle at 1 and 3; D-Leu; miniPEG; Lys side chain carrying cyclo-(Gln-(D-Arg)-Arg-(D-Arg)-Arg-(2-Nal)-(D-Phe)); C-terminal amide
notes: also called compound 41; 41
- IC50 [3]: 184 nM
- IC50 [4]: 184 nM

Binder: cyclopentylcarbonyl-[Tle]I[Tle]ITGPHEEYK(FITC″)-NH2 [peptide 3: cyclopentylcarbonyl-ZIZITGPHEEYK(FITC)-NH2]
- Kd [1]: 357 nM

B4: peptide 7: acyl-ZIZITGPHEEYK(FITC)-NH2 (peptide)
peptide: acyl-[Tle]I[Tle]ITGPHEEYK(FITC″)-NH2
modifications: reading uncertain; also: N-terminal acyl: halogenated and/or alkylated benzoyl, not named, printed as peptide 7: acyl-ZIZITGPHEEYK(FITC)-NH2
- Kd [1]: 32 nM

B5: CNI93 (peptide)
peptide: XIXITQHLSXKFXRRRRQ
modifications: not fully specified; sequence of peptide 14 (Dcb-ZIZIT-Gln-His-leu-Ser) with cyclic CPP9, cyclo(fΦRrRrQ), attached to the C-terminus through an amide bond and a βAla-Lys linker; Z = Tle; D-Leu
notes: A biotinylated form was used in the macrophage experiment
- fold lower CN-binding affinity (relative to peptide 14) [6]: 8 fold
- IC50 [5]: 127 nM

Binder: cyclohexylcarbonyl-[Tle]I[Tle]ITGPHEEYK(FITC″)-NH2 [peptide 4: cyclohexylcarbonyl-ZIZITGPHEEYK(FITC)-NH2]
- Kd [1]: 207 nM

B6: peptide 8: acyl-ZIZITGPHEEYK(FITC)-NH2 (peptide)
peptide: acyl-[Tle]I[Tle]ITGPHEEYK(FITC″)-NH2
modifications: reading uncertain; also: N-terminal acyl: halogenated and/or alkylated benzoyl, not named, printed as peptide 8: acyl-ZIZITGPHEEYK(FITC)-NH2
- Kd [1]: 74 nM

B7: compound 45: (DCNA)-Tle-Chg-Bhv-Ile-Thr-Gln-His-(D-Leu)-Ser-miniPEG-Lys{[cyclo-(Gln-(D-Arg)-Arg-(D-Arg)-Arg-(2-Nal)-(D-Phe)]}-NH2 (peptide)
peptide: XXXITQHLSKQRRRRXF
modifications: not fully specified; N-terminal DCNA; Tle; Chg = L-cyclohexylglycine; Bhv = L-β-hydroxyvaline; D-Leu; miniPEG; Lys side chain carrying cyclo-(Gln-(D-Arg)-Arg-(D-Arg)-Arg-(2-Nal)-(D-Phe)); C-terminal amide
- IC50 [3]: 45.6 nM

B8: CNI95 labeled at the C-terminus with FITC (peptide)
peptide: XIXITQHLSKFXRRRRQ
modifications: not fully specified; sequence of peptide 14 (Dcb-ZIZIT-Gln-His-leu-Ser) conjugated to CPP9, cyclo(fΦRrRrQ), through a miniPEG-Lys linker; FITC at the C-terminus; Z = Tle; D-Leu
notes: also called FITC-labeled CNI95
- Kd [7]: 17 nM

B9: peptide 10: acyl-ZIZITGPHEEYK(FITC)-NH2 (peptide)
peptide: [Tle]I[Tle]ITGPHEEYK(FITC)-NH2
modifications: not fully specified (N-terminus); printed as acyl-ZIZITGPHEEYK(FITC)-NH2; also: N-terminal acyl group unspecified (halogenated/alkylated benzoyl, drawing only)
- Kd [1]: 189 nM

B10: CNI95 (unlabeled) (peptide)
peptide: XIXITQHLSKFXRRRRQ
modifications: not fully specified; sequence of peptide 14 (Dcb-ZIZIT-Gln-His-leu-Ser) conjugated to CPP9, cyclo(fΦRrRrQ), through a miniPEG-Lys linker; Z = Tle; D-Leu
- fold higher potency (relative to CNI93) [8]: ~5 fold

Binder: {Benzoyl(2,3-Cl2)}-[Tle]I[Tle]ITGPHEEYK(FITC″)-NH2 [peptide 9: Dcb-ZIZITGPHEEYK(FITC)-NH2]
- Kd [1]: 41 nM

Binder: {Benzoyl(2,3-Cl2)}-[Tle]I[Tle]IT[miniPEG]K(FITC′) [peptide 12: Dcb-ZIZIT-miniPEG-Lys (FITC)]
- Kd [1]: 700 nM
- fold decrease in binding affinity (relative to peptide 9) [9]: 17 fold

Binder: {Benzoyl(2,3-Cl2)}-[Tle]I[Tle]ITY[dE][Phe(4-F)]G[βAla]K(FITC) [peptide 13: Dcb-ZIZIT-Tyr-glu-Fpa-Gly-βAla-Lys (FITC)]
- Kd [1]: 12 nM

B11: compound 44 (CNI104): (DCNA)-Tle-Chg-Bhv-Ile-Thr-Gln-His-(D-Leu)-Ser-βAla-Lys{[cyclo-(Gln-(D-Arg)-Arg-(D-Arg)-Arg-(2-Nal)-(D-Phe)]}-NH2 (peptide)
peptide: XXXITQHLSXKQRRRRXF
modifications: not fully specified; N-terminal DCNA (2,3-dichlorisonicotinamide); Tle; Chg = L-cyclohexylglycine; Bhv = L-β-hydroxyvaline; D-Leu; βAla; Lys side chain carrying cyclo-(Gln-(D-Arg)-Arg-(D-Arg)-Arg-(2-Nal)-(D-Phe)); C-terminal amide
- fold higher potency (relative to CNI103) [10]: ~5 fold
- IC50 [3]: 44.9 nM

B12: compound 48: (DFNA)-Tle-Ile-Bhv-Ile-Thr-Gln-His-(D-Leu)-Ser-miniPEG-Lys{[cyclo-(Gln-(D-Arg)-Arg-(D-Arg)-Arg-(2-Nal)-(D-Phe)]}-NH2 (peptide)
peptide: XIXITQHLSKQRRRRXF
modifications: not fully specified; N-terminal DFNA (2,3-difluoroisonicotinamide); Tle; Bhv = L-β-hydroxyvaline; D-Leu; miniPEG; Lys side chain carrying cyclo-(Gln-(D-Arg)-Arg-(D-Arg)-Arg-(2-Nal)-(D-Phe)); C-terminal amide
- IC50 [3]: 73.5 nM

B13: control: (DCB)-Tle-Ile-Tle-Ile-Thr-Gln-His-(D-Leu)-Ser-(β-Ala)-Lys{[cyclo-(Gln-(D-Arg)-Arg-(D-Arg)-Arg-(2-Nal)-(D-Phe)]}-NH2 (peptide)
peptide: XIXITQHLSXKQRRRRXF
modifications: not fully specified; N-terminal DCB (2,3-dichlorobenzoyl); Tle at 1 and 3; D-Leu; β-Ala; Lys side chain carrying cyclo-(Gln-(D-Arg)-Arg-(D-Arg)-Arg-(2-Nal)-(D-Phe)); C-terminal amide
notes: It is therefore kept as a separate molecule
- IC50 [4]: 857 nM

Binder: Bz-[Tle]I[Tle]ITGPHEEYK(FITC″)-NH2 [peptide 2: benzoyl-ZIZITGPHEEYK(FITC)-NH2]
- Kd [1]: 224 nM

B14: peptide 11: acyl-ZIZITGPHEEYK(FITC)-NH2 (peptide)
peptide: [Tle]I[Tle]ITGPHEEYK(FITC)-NH2
modifications: not fully specified (N-terminus); printed as acyl-ZIZITGPHEEYK(FITC)-NH2; also: N-terminal acyl group unspecified (halogenated/alkylated benzoyl, drawing only)
- Kd [1]: 77 nM

B15: compound 46: (DCNA)-Tle-Ile-Psa-Ile-Thr-Gln-His-(D-Leu)-Ser-miniPEG-Lys{[cyclo-(Gln-(D-Arg)-Arg-(D-Arg)-Arg-(2-Nal)-(D-Phe)]}-NH2 (peptide)
peptide: XIXITQHLSKQRRRRXF
modifications: not fully specified; N-terminal DCNA; Tle; Psa = L-penicillamine sulfonic acid; D-Leu; miniPEG; Lys side chain carrying cyclo-(Gln-(D-Arg)-Arg-(D-Arg)-Arg-(2-Nal)-(D-Phe)); C-terminal amide
- IC50 [3]: 107 nM

B16: compound 51: (DFNA)-Tle-Chg-Psa-Ile-Thr-Gln-His-(D-Leu)-Ser-miniPEG-Lys{[cyclo-(Gln-(D-Arg)-Arg-(D-Arg)-Arg-(2-Nal)-(D-Phe)]}-NH2 (peptide)
peptide: XXXITQHLSKQRRRRXF
modifications: not fully specified; N-terminal DFNA (2,3-difluoroisonicotinamide); Tle; Chg = L-cyclohexylglycine; Psa = L-penicillamine sulfonic acid; D-Leu; miniPEG; Lys side chain carrying cyclo-(Gln-(D-Arg)-Arg-(D-Arg)-Arg-(2-Nal)-(D-Phe)); C-terminal amide
- IC50 [3]: 96.5 nM

From patent US20240033318A1 (OHIO STATE INNOVATION FOUNDATION, published 2024)
